Source: patent publication US20250368745A1 (published 2025)

T1: human IL-18BP (human, UniProt O95998 31-194)
T1 construct: UniProt printed as 095998; also called hIL-18BP
T1 sequence: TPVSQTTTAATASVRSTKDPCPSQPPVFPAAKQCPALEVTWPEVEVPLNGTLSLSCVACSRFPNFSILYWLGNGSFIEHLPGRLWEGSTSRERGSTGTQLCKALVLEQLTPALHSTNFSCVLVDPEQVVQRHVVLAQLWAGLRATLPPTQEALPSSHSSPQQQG


Molecular target: T1, human IL-18BP
Experiment: BLI, apparent KD

Binder	Kd
SA302a HC-T30V (antibody, V domains shown) VH: QVQLQESGPGLVKPSQTLSLTCTVSGYSIVSDYNAHWIRQPPGKGLEWIGYIHYSGSTNYNPSLKSRVTISRDTSKNQFSLKLSSVTAADTAVYYCARNYGSIYVNYFDYWGQGTLVTVSS VL: EIVLTQSPATLSLSPGERATLSCSASSSVSYMYWYQQKPGQAPRPLIYRTSNLASGIPARFSGSGSGTDFTLTISSLEPEDFAVYYCQQYHSYPTFGGGTKVEIK	1.08 nM
SA302a HC-S31N (antibody, V domains shown) VH: QVQLQESGPGLVKPSQTLSLTCTVSGYSITNDYNAHWIRQPPGKGLEWIGYIHYSGSTNYNPSLKSRVTISRDTSKNQFSLKLSSVTAADTAVYYCARNYGSIYVNYFDYWGQGTLVTVSS VL: EIVLTQSPATLSLSPGERATLSCSASSSVSYMYWYQQKPGQAPRPLIYRTSNLASGIPARFSGSGSGTDFTLTISSLEPEDFAVYYCQQYHSYPTFGGGTKVEIK	0.98 nM
SA302a HC-S31H (antibody, V domains shown) VH: QVQLQESGPGLVKPSQTLSLTCTVSGYSITHDYNAHWIRQPPGKGLEWIGYIHYSGSTNYNPSLKSRVTISRDTSKNQFSLKLSSVTAADTAVYYCARNYGSIYVNYFDYWGQGTLVTVSS VL: EIVLTQSPATLSLSPGERATLSCSASSSVSYMYWYQQKPGQAPRPLIYRTSNLASGIPARFSGSGSGTDFTLTISSLEPEDFAVYYCQQYHSYPTFGGGTKVEIK	0.57 nM
SA302a HC-S31G (antibody, V domains shown) VH: QVQLQESGPGLVKPSQTLSLTCTVSGYSITGDYNAHWIRQPPGKGLEWIGYIHYSGSTNYNPSLKSRVTISRDTSKNQFSLKLSSVTAADTAVYYCARNYGSIYVNYFDYWGQGTLVTVSS VL: EIVLTQSPATLSLSPGERATLSCSASSSVSYMYWYQQKPGQAPRPLIYRTSNLASGIPARFSGSGSGTDFTLTISSLEPEDFAVYYCQQYHSYPTFGGGTKVEIK	1.64 nM
SA302a HC-S31I (antibody, V domains shown) VH: QVQLQESGPGLVKPSQTLSLTCTVSGYSITIDYNAHWIRQPPGKGLEWIGYIHYSGSTNYNPSLKSRVTISRDTSKNQFSLKLSSVTAADTAVYYCARNYGSIYVNYFDYWGQGTLVTVSS VL: EIVLTQSPATLSLSPGERATLSCSASSSVSYMYWYQQKPGQAPRPLIYRTSNLASGIPARFSGSGSGTDFTLTISSLEPEDFAVYYCQQYHSYPTFGGGTKVEIK	1.01 nM
SA302a HC-T30G (antibody, V domains shown) VH: QVQLQESGPGLVKPSQTLSLTCTVSGYSIGSDYNAHWIRQPPGKGLEWIGYIHYSGSTNYNPSLKSRVTISRDTSKNQFSLKLSSVTAADTAVYYCARNYGSIYVNYFDYWGQGTLVTVSS VL: EIVLTQSPATLSLSPGERATLSCSASSSVSYMYWYQQKPGQAPRPLIYRTSNLASGIPARFSGSGSGTDFTLTISSLEPEDFAVYYCQQYHSYPTFGGGTKVEIK	1.38 nM
SA302a HC-T30M (antibody, V domains shown) VH: QVQLQESGPGLVKPSQTLSLTCTVSGYSIMSDYNAHWIRQPPGKGLEWIGYIHYSGSTNYNPSLKSRVTISRDTSKNQFSLKLSSVTAADTAVYYCARNYGSIYVNYFDYWGQGTLVTVSS VL: EIVLTQSPATLSLSPGERATLSCSASSSVSYMYWYQQKPGQAPRPLIYRTSNLASGIPARFSGSGSGTDFTLTISSLEPEDFAVYYCQQYHSYPTFGGGTKVEIK	1.54 nM
SA302a HC-T30Q (antibody, V domains shown) VH: QVQLQESGPGLVKPSQTLSLTCTVSGYSIQSDYNAHWIRQPPGKGLEWIGYIHYSGSTNYNPSLKSRVTISRDTSKNQFSLKLSSVTAADTAVYYCARNYGSIYVNYFDYWGQGTLVTVSS VL: EIVLTQSPATLSLSPGERATLSCSASSSVSYMYWYQQKPGQAPRPLIYRTSNLASGIPARFSGSGSGTDFTLTISSLEPEDFAVYYCQQYHSYPTFGGGTKVEIK	1.28 nM
SA302a HC-S31V (antibody, V domains shown) VH: QVQLQESGPGLVKPSQTLSLTCTVSGYSITVDYNAHWIRQPPGKGLEWIGYIHYSGSTNYNPSLKSRVTISRDTSKNQFSLKLSSVTAADTAVYYCARNYGSIYVNYFDYWGQGTLVTVSS VL: EIVLTQSPATLSLSPGERATLSCSASSSVSYMYWYQQKPGQAPRPLIYRTSNLASGIPARFSGSGSGTDFTLTISSLEPEDFAVYYCQQYHSYPTFGGGTKVEIK	1.09 nM
SA302a HC-S31A (antibody, V domains shown) VH: QVQLQESGPGLVKPSQTLSLTCTVSGYSITADYNAHWIRQPPGKGLEWIGYIHYSGSTNYNPSLKSRVTISRDTSKNQFSLKLSSVTAADTAVYYCARNYGSIYVNYFDYWGQGTLVTVSS VL: EIVLTQSPATLSLSPGERATLSCSASSSVSYMYWYQQKPGQAPRPLIYRTSNLASGIPARFSGSGSGTDFTLTISSLEPEDFAVYYCQQYHSYPTFGGGTKVEIK	0.92 nM
SA302a HC-S31L (antibody, V domains shown) VH: QVQLQESGPGLVKPSQTLSLTCTVSGYSITLDYNAHWIRQPPGKGLEWIGYIHYSGSTNYNPSLKSRVTISRDTSKNQFSLKLSSVTAADTAVYYCARNYGSIYVNYFDYWGQGTLVTVSS VL: EIVLTQSPATLSLSPGERATLSCSASSSVSYMYWYQQKPGQAPRPLIYRTSNLASGIPARFSGSGSGTDFTLTISSLEPEDFAVYYCQQYHSYPTFGGGTKVEIK	0.98 nM
SA302a HC-S31M (antibody, V domains shown) VH: QVQLQESGPGLVKPSQTLSLTCTVSGYSITMDYNAHWIRQPPGKGLEWIGYIHYSGSTNYNPSLKSRVTISRDTSKNQFSLKLSSVTAADTAVYYCARNYGSIYVNYFDYWGQGTLVTVSS VL: EIVLTQSPATLSLSPGERATLSCSASSSVSYMYWYQQKPGQAPRPLIYRTSNLASGIPARFSGSGSGTDFTLTISSLEPEDFAVYYCQQYHSYPTFGGGTKVEIK	0.61 nM
SA302a HC-T30E (antibody, V domains shown) VH: QVQLQESGPGLVKPSQTLSLTCTVSGYSIESDYNAHWIRQPPGKGLEWIGYIHYSGSTNYNPSLKSRVTISRDTSKNQFSLKLSSVTAADTAVYYCARNYGSIYVNYFDYWGQGTLVTVSS VL: EIVLTQSPATLSLSPGERATLSCSASSSVSYMYWYQQKPGQAPRPLIYRTSNLASGIPARFSGSGSGTDFTLTISSLEPEDFAVYYCQQYHSYPTFGGGTKVEIK	2.08 nM
SA302a HC-T30I (antibody, V domains shown) VH: QVQLQESGPGLVKPSQTLSLTCTVSGYSIISDYNAHWIRQPPGKGLEWIGYIHYSGSTNYNPSLKSRVTISRDTSKNQFSLKLSSVTAADTAVYYCARNYGSIYVNYFDYWGQGTLVTVSS VL: EIVLTQSPATLSLSPGERATLSCSASSSVSYMYWYQQKPGQAPRPLIYRTSNLASGIPARFSGSGSGTDFTLTISSLEPEDFAVYYCQQYHSYPTFGGGTKVEIK	1.79 nM
SA302a HC-T30A (antibody, V domains shown) VH: QVQLQESGPGLVKPSQTLSLTCTVSGYSIASDYNAHWIRQPPGKGLEWIGYIHYSGSTNYNPSLKSRVTISRDTSKNQFSLKLSSVTAADTAVYYCARNYGSIYVNYFDYWGQGTLVTVSS VL: EIVLTQSPATLSLSPGERATLSCSASSSVSYMYWYQQKPGQAPRPLIYRTSNLASGIPARFSGSGSGTDFTLTISSLEPEDFAVYYCQQYHSYPTFGGGTKVEIK	1.32 nM
SA302a HC-S31E (antibody, V domains shown) VH: QVQLQESGPGLVKPSQTLSLTCTVSGYSITEDYNAHWIRQPPGKGLEWIGYIHYSGSTNYNPSLKSRVTISRDTSKNQFSLKLSSVTAADTAVYYCARNYGSIYVNYFDYWGQGTLVTVSS VL: EIVLTQSPATLSLSPGERATLSCSASSSVSYMYWYQQKPGQAPRPLIYRTSNLASGIPARFSGSGSGTDFTLTISSLEPEDFAVYYCQQYHSYPTFGGGTKVEIK	1.53 nM
SA302a HC-S31Q (antibody, V domains shown) VH: QVQLQESGPGLVKPSQTLSLTCTVSGYSITQDYNAHWIRQPPGKGLEWIGYIHYSGSTNYNPSLKSRVTISRDTSKNQFSLKLSSVTAADTAVYYCARNYGSIYVNYFDYWGQGTLVTVSS VL: EIVLTQSPATLSLSPGERATLSCSASSSVSYMYWYQQKPGQAPRPLIYRTSNLASGIPARFSGSGSGTDFTLTISSLEPEDFAVYYCQQYHSYPTFGGGTKVEIK	0.56 nM
SA302a HC-S31Y (antibody, V domains shown) VH: QVQLQESGPGLVKPSQTLSLTCTVSGYSITYDYNAHWIRQPPGKGLEWIGYIHYSGSTNYNPSLKSRVTISRDTSKNQFSLKLSSVTAADTAVYYCARNYGSIYVNYFDYWGQGTLVTVSS VL: EIVLTQSPATLSLSPGERATLSCSASSSVSYMYWYQQKPGQAPRPLIYRTSNLASGIPARFSGSGSGTDFTLTISSLEPEDFAVYYCQQYHSYPTFGGGTKVEIK	1.11 nM
SA302a HC-T30L (antibody, V domains shown) VH: QVQLQESGPGLVKPSQTLSLTCTVSGYSILSDYNAHWIRQPPGKGLEWIGYIHYSGSTNYNPSLKSRVTISRDTSKNQFSLKLSSVTAADTAVYYCARNYGSIYVNYFDYWGQGTLVTVSS VL: EIVLTQSPATLSLSPGERATLSCSASSSVSYMYWYQQKPGQAPRPLIYRTSNLASGIPARFSGSGSGTDFTLTISSLEPEDFAVYYCQQYHSYPTFGGGTKVEIK	1.22 nM
SA302a HC-S31P (antibody, V domains shown) VH: QVQLQESGPGLVKPSQTLSLTCTVSGYSITPDYNAHWIRQPPGKGLEWIGYIHYSGSTNYNPSLKSRVTISRDTSKNQFSLKLSSVTAADTAVYYCARNYGSIYVNYFDYWGQGTLVTVSS VL: EIVLTQSPATLSLSPGERATLSCSASSSVSYMYWYQQKPGQAPRPLIYRTSNLASGIPARFSGSGSGTDFTLTISSLEPEDFAVYYCQQYHSYPTFGGGTKVEIK	4.37 nM
SA302a HC-S31F (antibody, V domains shown) VH: QVQLQESGPGLVKPSQTLSLTCTVSGYSITFDYNAHWIRQPPGKGLEWIGYIHYSGSTNYNPSLKSRVTISRDTSKNQFSLKLSSVTAADTAVYYCARNYGSIYVNYFDYWGQGTLVTVSS VL: EIVLTQSPATLSLSPGERATLSCSASSSVSYMYWYQQKPGQAPRPLIYRTSNLASGIPARFSGSGSGTDFTLTISSLEPEDFAVYYCQQYHSYPTFGGGTKVEIK	0.79 nM
SA302a HC-S31T (antibody, V domains shown) VH: QVQLQESGPGLVKPSQTLSLTCTVSGYSITTDYNAHWIRQPPGKGLEWIGYIHYSGSTNYNPSLKSRVTISRDTSKNQFSLKLSSVTAADTAVYYCARNYGSIYVNYFDYWGQGTLVTVSS VL: EIVLTQSPATLSLSPGERATLSCSASSSVSYMYWYQQKPGQAPRPLIYRTSNLASGIPARFSGSGSGTDFTLTISSLEPEDFAVYYCQQYHSYPTFGGGTKVEIK	1.02 nM
